Values of other authors in patent publication US20090074843A1, “Use of epi-hne 1-4” (priority 2004, published 2009).

T1: human neutrophil elastase (Homo sapiens, UniProt P08246)
T1 sequence (P08246 30-267): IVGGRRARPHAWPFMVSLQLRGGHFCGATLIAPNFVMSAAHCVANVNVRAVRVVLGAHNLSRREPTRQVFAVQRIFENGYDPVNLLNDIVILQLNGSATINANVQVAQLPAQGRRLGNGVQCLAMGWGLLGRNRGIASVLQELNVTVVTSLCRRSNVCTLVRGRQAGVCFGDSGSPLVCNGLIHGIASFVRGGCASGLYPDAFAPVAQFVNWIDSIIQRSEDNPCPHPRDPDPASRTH


Tests used:
[1] = chloramineT, up to 50 mol-equivalents
Human Urine Urokinase = Human Urine Urokinase (Homo sapiens, UniProt P00749); details: Human Urine Urokinase vs Elastase
Kallikrein = Kallikrein (Homo sapiens, UniProt P03952); details: Human Serum Kallikrein vs Elastase
Sequence of Kallikrein (P03952 391-638 limits assumed): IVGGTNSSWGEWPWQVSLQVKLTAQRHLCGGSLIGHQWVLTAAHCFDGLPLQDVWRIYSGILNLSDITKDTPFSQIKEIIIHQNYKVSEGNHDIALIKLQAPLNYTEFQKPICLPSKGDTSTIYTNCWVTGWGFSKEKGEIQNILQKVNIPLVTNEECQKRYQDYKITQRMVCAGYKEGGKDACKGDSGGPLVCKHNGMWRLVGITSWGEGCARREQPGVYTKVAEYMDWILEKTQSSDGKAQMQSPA
Sequence of Kallikrein (P03952 20-390 limits assumed): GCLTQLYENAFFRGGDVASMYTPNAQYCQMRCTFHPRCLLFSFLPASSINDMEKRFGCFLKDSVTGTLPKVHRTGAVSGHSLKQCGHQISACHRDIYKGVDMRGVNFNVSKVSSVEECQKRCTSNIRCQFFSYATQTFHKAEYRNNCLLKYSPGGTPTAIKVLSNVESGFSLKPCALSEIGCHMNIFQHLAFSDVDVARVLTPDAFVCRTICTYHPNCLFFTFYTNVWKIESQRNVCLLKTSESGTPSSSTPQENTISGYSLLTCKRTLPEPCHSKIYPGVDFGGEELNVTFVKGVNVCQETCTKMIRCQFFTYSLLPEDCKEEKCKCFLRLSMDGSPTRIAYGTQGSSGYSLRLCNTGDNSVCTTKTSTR

Thrombin = Thrombin (Homo sapiens, UniProt P00734); details: Human Serum Thrombin vs Elastase
[2] = system: Human Pancreatic Chymotrypsin; details: Human Pancreatic Chymotrypsin vs Elastase
Human Serum Plasmin = Human Serum Plasmin (Homo sapiens, UniProt P00747); details: Human Serum Plasmin vs Elastase
Sequence of Human Serum Plasmin (P00747 581-810 limits assumed): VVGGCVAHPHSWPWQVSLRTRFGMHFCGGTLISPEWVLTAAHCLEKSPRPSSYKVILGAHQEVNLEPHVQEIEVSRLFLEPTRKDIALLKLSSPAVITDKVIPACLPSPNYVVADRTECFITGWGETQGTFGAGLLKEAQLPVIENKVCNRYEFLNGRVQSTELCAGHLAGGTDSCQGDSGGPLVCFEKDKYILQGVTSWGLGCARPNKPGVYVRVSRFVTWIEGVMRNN
Sequence of Human Serum Plasmin (P00747 98-580 partner limits assumed): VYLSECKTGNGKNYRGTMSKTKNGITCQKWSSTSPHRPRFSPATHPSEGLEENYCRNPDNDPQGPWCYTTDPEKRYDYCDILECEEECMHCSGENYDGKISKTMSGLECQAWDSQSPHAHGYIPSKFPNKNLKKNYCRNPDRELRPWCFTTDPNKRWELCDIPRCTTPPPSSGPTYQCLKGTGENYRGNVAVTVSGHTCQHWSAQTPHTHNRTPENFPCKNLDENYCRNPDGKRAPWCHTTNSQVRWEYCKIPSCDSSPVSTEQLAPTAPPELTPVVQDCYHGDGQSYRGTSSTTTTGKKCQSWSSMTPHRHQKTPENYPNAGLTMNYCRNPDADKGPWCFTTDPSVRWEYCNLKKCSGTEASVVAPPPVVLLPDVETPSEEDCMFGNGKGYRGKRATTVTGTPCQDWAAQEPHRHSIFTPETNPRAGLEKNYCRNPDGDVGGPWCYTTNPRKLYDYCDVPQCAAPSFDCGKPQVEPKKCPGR

Human Plasma Factor Xa = Human Plasma Factor Xa (Homo sapiens, UniProt P00742); details: Human Plasma Factor Xa vs Elastase
Sequence of Human Plasma Factor Xa (P00742 235-488 limits assumed): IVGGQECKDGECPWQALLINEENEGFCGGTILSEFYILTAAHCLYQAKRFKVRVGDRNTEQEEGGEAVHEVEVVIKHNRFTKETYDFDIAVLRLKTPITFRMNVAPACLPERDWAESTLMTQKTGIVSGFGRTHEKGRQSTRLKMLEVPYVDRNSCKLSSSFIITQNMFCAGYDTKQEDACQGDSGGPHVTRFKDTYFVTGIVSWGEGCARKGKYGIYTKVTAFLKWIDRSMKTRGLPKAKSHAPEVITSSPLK
Sequence of Human Plasma Factor Xa (P00742 41-179 partner limits assumed): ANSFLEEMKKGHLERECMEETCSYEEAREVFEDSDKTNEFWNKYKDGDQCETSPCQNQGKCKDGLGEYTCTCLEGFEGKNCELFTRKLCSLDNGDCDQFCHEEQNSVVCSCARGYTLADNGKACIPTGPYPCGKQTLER

[3] = molecular target: T1, human neutrophil elastase; details: comparison values

Row | selectivity in Ki values (Human Urine Urokinase) | selectivity in Ki values (Kallikrein) | selectivity in Ki values (Thrombin) | selectivity in Ki values [2] | selectivity in Ki values (Human Serum Plasmin) | selectivity in Ki values (Human Plasma Factor Xa) | Kd [3] [nM] | Molecule | resistance to oxidation (retention of activity) [1]
1 |  |  |  |  |  |  |  | AAT: naturally occurring elastase inhibitor, serum protease inhibitor [reference compound] | destroy the activity
2 | more than 10^6 | more than 10^6 | more than 10^6 | more than 10^6 | more than 10^6 | more than 10^6 |  | EPI-HNE4: 56 amino acid protein (SEQ ID NO: 1) derived from second Kunitz type domain of human inter-alpha-inhibitor light chain (ITI-D2); elastase inhibitor (EACNLPIVRGPCIAFFPRWAFDAVKGKCVLFPYGGCQGNGNKFYSEKECREYCGVP; P. pastoris; EPI-HNE4 N-terminal modified to facilitate secretion) | 
3 |  |  |  |  |  |  | 100 | SLPI: naturally occurring elastase inhibitor, serum protease inhibitor (protein, UniProt P03973 26-132, looked up) Antileukoproteinase: SGKSFKAGVCPPKKSAQCLRYKKPECQSDWQCPGKKRCCPDTCGIKCLDPVDTPNPTRRKPGKCPVTYGQCLMLNPPNFCEMDGQCKRDLKCCMGMCGKSCVSPVKA | destroy the activity
